Test results taken from article PMC4591219 (Cell reports, 2015).
Substitutions are numbered along the chain they refer to.

Columns and labels:
Ccq1 (130–439) = biological target: T1, Ccq1 (130–439) (S. pombe, UniProt Q10432 130-439); experiment: cross-linking
T1 sequence: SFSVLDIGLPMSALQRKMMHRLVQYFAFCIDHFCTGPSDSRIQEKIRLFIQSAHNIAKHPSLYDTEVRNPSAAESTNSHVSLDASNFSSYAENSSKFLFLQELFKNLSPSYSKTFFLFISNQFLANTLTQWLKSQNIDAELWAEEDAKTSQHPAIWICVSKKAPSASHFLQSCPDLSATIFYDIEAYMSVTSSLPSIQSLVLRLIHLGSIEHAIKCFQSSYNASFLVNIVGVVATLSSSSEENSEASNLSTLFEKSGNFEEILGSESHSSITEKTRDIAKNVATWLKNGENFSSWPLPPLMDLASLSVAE

[1] = biological target: T2, full-length Pot1 (in the purified Pot1–Tpz1-NTD complex) (S. pombe, UniProt O13988 1-555); experiment: cross-linking
T2 sequence: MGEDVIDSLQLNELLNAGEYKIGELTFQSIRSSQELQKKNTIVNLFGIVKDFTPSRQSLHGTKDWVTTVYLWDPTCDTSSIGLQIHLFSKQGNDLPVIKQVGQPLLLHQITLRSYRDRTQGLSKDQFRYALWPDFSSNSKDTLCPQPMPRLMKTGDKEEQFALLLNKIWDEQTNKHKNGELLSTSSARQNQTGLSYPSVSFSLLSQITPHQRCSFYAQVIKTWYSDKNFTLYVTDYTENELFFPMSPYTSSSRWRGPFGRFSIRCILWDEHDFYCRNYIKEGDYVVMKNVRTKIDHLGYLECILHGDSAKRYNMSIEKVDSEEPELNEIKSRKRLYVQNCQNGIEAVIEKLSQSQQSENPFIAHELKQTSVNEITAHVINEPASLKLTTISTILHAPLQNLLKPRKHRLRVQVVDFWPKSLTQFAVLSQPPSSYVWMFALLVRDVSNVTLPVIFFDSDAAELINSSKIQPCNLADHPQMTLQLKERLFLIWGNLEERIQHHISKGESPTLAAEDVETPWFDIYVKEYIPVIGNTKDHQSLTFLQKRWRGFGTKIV

Pot1-F520A = biological target: T3, Pot1-F520A (Schizosaccharomyces pombe, UniProt O13988 1-555, F520A); experiment: EMSA
T3 sequence: T2 sequence with F520A

Pot1-I453R = biological target: T4, Pot1-I453R (Schizosaccharomyces pombe, UniProt O13988 1-555, I453R); experiment: EMSA
T4 sequence: T2 sequence with I453R

[2] = biological target: T5, Pot1 (wild type, recombinant, GST pull-down) (S. pombe, UniProt O13988 1-555); experiment: pull-down
T5 sequence: T2 sequence

[3] = biological target: T6, full-length Poz1 (in the purified Poz1-Tpz1 complex) (S. pombe, UniProt O13852 1-249); experiment: cross-linking
T6 sequence: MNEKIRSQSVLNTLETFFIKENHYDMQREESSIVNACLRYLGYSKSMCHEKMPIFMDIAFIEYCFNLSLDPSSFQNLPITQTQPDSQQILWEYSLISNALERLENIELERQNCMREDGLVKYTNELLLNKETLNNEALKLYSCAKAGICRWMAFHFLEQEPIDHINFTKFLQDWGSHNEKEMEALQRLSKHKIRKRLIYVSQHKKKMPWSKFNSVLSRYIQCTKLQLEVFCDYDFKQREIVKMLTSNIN

[4] = biological target: T7, Poz1 (wild type, recombinant, GST pull-down) (S. pombe, UniProt O13852 1-249); experiment: pull-down
T7 sequence: T6 sequence

Poz1-W174R (recombinant) = biological target: T8, Poz1-W174R (recombinant) (S. pombe, UniProt O13852 1-249, W174R); experiment: pull-down
T8 sequence: T6 sequence with W174R

Poz1-W209A (recombinant) = biological target: T9, Poz1-W209A (recombinant) (S. pombe, UniProt O13852 1-249, W209A); experiment: pull-down
T9 sequence: T6 sequence with W209A

B1: Tpz1 (415–458) (domain or fragment)
chain: AINFTSDICNEQIELEYKRKPIPDYDFMKGLETTLQELYVEHQS
B1: binds (Ccq1 (130–439)).

B2: Tpz1-NTD (1–234) (in the purified Pot1–Tpz1-NTD complex) (domain or fragment)
chain: MSNCLKHPWLENGLLNLIKNADVLPIRVFKCQPLQIFEYIRYEHPIRCKLSDTEFYIEAEFSSQSISDLNNFTEKRITSLRGGIVTLGNFLIHLIPSQSGIIPWIQVESFNFQGCEGAVFGNPKAITTSALFNALLQSPYLAALANEFNRSIKEGSSYQEASLSQQEKPNDNTSNSRDIKNNIQFHWKNMTSLSIEECIIPKGQQLILEKESEENTTHGIYLEERKMAQGLHNS
B2: binds [1].

B3: telomeric ssDNA 19-mer (ssDNA)
DNA: GTTACGGTTACAGGTTACG
B3: binds (Pot1-F520A); binds (Pot1-I453R).

B4: GST-Tpz1-NTD (2–234) (domain or fragment)
chain: SNCLKHPWLENGLLNLIKNADVLPIRVFKCQPLQIFEYIRYEHPIRCKLSDTEFYIEAEFSSQSISDLNNFTEKRITSLRGGIVTLGNFLIHLIPSQSGIIPWIQVESFNFQGCEGAVFGNPKAITTSALFNALLQSPYLAALANEFNRSIKEGSSYQEASLSQQEKPNDNTSNSRDIKNNIQFHWKNMTSLSIEECIIPKGQQLILEKESEENTTHGIYLEERKMAQGLHNS
B4: binds [2].

B5: Tpz1 (406–508) (in the purified Poz1-Tpz1 complex) (domain or fragment)
chain: SSVISCTPPAINFTSDICNEQIELEYKRKPIPDYDFMKGLETTLQELYVEHQSKKRRLELFQLTNNHQKNSEACEMCRLGLPHGSFFELLRDWKKIEEFRNKS
B5: binds [3].

B6: GST-Tpz1-CTD (406–508) (domain or fragment)
chain: B5 chain
B6: binds [4]; binds (Poz1-W174R (recombinant)); binds (Poz1-W209A (recombinant)).
